Assay results taken from article doi:10.1101/602425.

Biological target: GST-Rac1A, active (GTPγs-bound) (Dictyostelium) (UniProt P34144)
Test: pull-down

immunoblot quantification of binding (%): 1.9%
Substance: GFP-WASP (wild type Dictyostelium WASP) (natural protein)
